Data published in article PMC3861672.

Target: Fps1 (UniProt P23900)
Assay: BiFC, split CFP
Conditions: reference: no sorbitol

Substance: Hog1 (from UniProt P32485) 1 M sorbitol, 5 min
- other: percent of cells with detectable fluorescence: stronger; reference 27.6
